Laboratory results reported in PMC6668441, “Comparative Study of Subcutaneous and Orthotopic Mouse Models of Prostate Cancer: Vascular Perfusion, Vasculature Density, Hypoxic Burden and BB2r-Targeting Efficacy” (Scientific Reports, 2019).

How the values were obtained:
[1] = Biodistribution, BB2r-targeted uptake, orthotopic PC-3 xenograft model; details: male, NOD SCID, mouse, iv, total radioactivity, orthotopic model, 10 µCi i.v., 1 h 5 min p.i., mean ± SD; for dose excreted at 65 min: urine and faeces, excretion (urine and fecal material)
Protocol: (§1) For the subcutaneous model, 5-week old female SCID mice were inoculated in the flanks with 5 × 10^6 PC-3 cells (American Type Culture Collection (ATCC), VA) in Matrigel®. The tumor size was monitored by caliper. For the generation of the orthotopic model, the PC-3-Luc cells were selected by 0.5 µg/mL puromycin twice before inoculation. The male 6-weeks SCID mice were anesthetized, the muscles of the abdomen area were cut after retracting the skin, and the prostate gland exposed. 50 μL of PC-3-Luc cell suspension at 0.5 × 10^6/mL in Matrigel® was injected into a dorsal prostatic lobe. The wound was closed in two layers and the skin was clipped. Animals were given analgesic drugs for 3 days and the tumors were monitored by an IVIS optical imaging system.
(§2) The mice were injected, monitored and dissected in the lab with the temperature of 23 °C and 17% relative humidity. All animals were awake until sacrifice. The body weight, tumor volume and tumor luminescence of the mice were recorded every three days. At four-to-seven weeks post-xenograft implantation, the mice were divided into three groups by tumor volume: <300, 300–700 and >700 mm^3 in both animal models. […] Each mouse (average weight: 20 g for female mice and 25 g for male mice) was treated with pimonidazole solution (80 mg/kg in PBS) via intraperitoneal injection. […] After an additional 1 h, the mice were injected intravenously with a PBS solution containing 10 µCi (370 kBq) of [^99mTc]NaTcO4 and 15 mg/kg Hoechst 33342. The animals were sacrificed 5 minutes later, and their tissues collected. The excised tissues were weighed, the radioactivity for each tissue was measured by γ-counter and the percentage injected dose per gram (%ID/g) was calculated for each tissue. […]
(§3) Establishment of Stably Transfected PC-3-Luc Cells
(§4) To generate the PC-3-Luc cells, we utilized pre-made lentivirus particles encoding luciferase and GFP (EF1a-Luciferase (firefly)-2A-GFP (Puro), AMSBIO) for transfection. Briefly, normal PC-3 cells were seeded in a 24-well plate using 0.5 mL of medium containing 0.5 × 10^5 cells/mL and incubated overnight. The medium was removed and replaced with 0.5 mL of fresh medium pre-mixed with 2.5 ȝL TransduxTM. To each well was added 2 ȝL of the lentivirus particle solution and swirled to mix. The plate was returned to the incubator and cultured for 3 days. Once the cells grew to confluence, they were harvested and transferred to larger plates (from 6-well plates to 60 mm dishes). 1.5 mL of suspended cells in PBS at a concentration of 5 × 10^6/mL was sorted by the FACS method to give the GFP positive (PC-3-Luc) cells that were returned to culture for in vitro and in vivo studies.
(§5) The normal PC-3 cells and PC-3-Luc were cultured in our laboratory, as per ATCC protocols, in Ham’s F-12K medium containing 10% FBS, 2.5 mM L-glutamine, 15 mM HEPES and 0.5 mM sodium pyruvate. Cells were incubated at 37 °C […]
(§6) All animal experiments were performed in accordance with the NIH animal use guideline and protocol approved by the […]

[2] = test system: orthotopic PC-3 xenografts; experiment: as above
Protocol: as §1, §2, §3, §4, §5, §6

Compound `CSCC[C@H](NC(=O)[C@H](CC(C)C)NC(=O)[C@H](Cc1c[nH]cn1)NC(=O)CNC(=O)[C@@H](NC(=O)[C@H](C)NC(=O)[C@H](Cc1c[nH]c2ccccc12)NC(=O)[C@H](CCC(N)=O)NC(=O)CCOCCOCCOCCOCCNC(=O)[C@@H](CO)NC(=O)[C@@H](CO)NC(=O)[C@@H](CO)NC(=O)[C@@H](CO)NC(=O)[C@@H](CO)NC(=O)CN1CCN(CC(=O)O)CCN(CC(=O)O)CCN(CC(=O)O)CC1)C(C)C)C(N)=O` [[^177Lu]Lu-DOTA-SP714, metal not drawn] has a tissue uptake at 65 min ([1]; blood, 10 uCi, blood uptake, tumor volume 300-700 mm^3) of 0.33 ± 0.14 %ID/g, a tissue uptake at 65 min ([1]; blood, 10 uCi, blood uptake, tumor volume <300 mm^3) of 0.27 ± 0.19 %ID/g and a tissue uptake at 65 min ([1]; blood, 10 uCi, blood uptake, tumor volume >700 mm^3) of 0.57 ± 0.12 %ID/g. It also gave a tissue uptake at 65 min ([1]; bone, 10 uCi (370 kBq), bone uptake, tumor volume 300-700 mm^3) of 0.46 ± 0.22 %ID/g, a tissue uptake at 65 min ([1]; bone, 10 uCi (370 kBq), bone uptake, tumor volume <300 mm^3) of 0.29 ± 0.22 %ID/g and a tissue uptake at 65 min ([1]; bone, 10 uCi (370 kBq), bone uptake, tumor volume >700 mm^3) of 0.53 ± 0.24 %ID/g. The tissue uptake at 65 min ([1]; brain, 10 uCi (370 kBq), brain uptake, tumor volume 300-700 mm^3) was 0.06 ± 0.03 %ID/g, the tissue uptake at 65 min ([1]; brain, 10 uCi (370 kBq), brain uptake, tumor volume <300 mm^3) was 0.03 ± 0.01 %ID/g and the tissue uptake at 65 min ([1]; brain, 10 uCi (370 kBq), brain uptake, tumor volume >700 mm^3) was 0.06 ± 0.02 %ID/g. It also gave a tissue uptake at 65 min ([1]; heart, 10 uCi (370 kBq), heart uptake, tumor volume 300-700 mm^3) of 0.39 ± 0.49 %ID/g, a tissue uptake at 65 min ([1]; heart, 10 uCi (370 kBq), heart uptake, tumor volume <300 mm^3) of 0.13 ± 0.09 %ID/g and a tissue uptake at 65 min ([1]; heart, 10 uCi (370 kBq), heart uptake, tumor volume >700 mm^3) of 0.3 ± 0.17 %ID/g. The tissue uptake at 65 min ([1]; kidney, 10 uCi (370 kBq), kidney uptake, tumor volume 300-700 mm^3) was 4.8 ± 4.92 %ID/g, the tissue uptake at 65 min ([1]; kidney, 10 uCi (370 kBq), kidney uptake, tumor volume <300 mm^3) was 3.4 ± 0.92 %ID/g and the tissue uptake at 65 min ([1]; kidney, 10 uCi (370 kBq), kidney uptake, tumor volume >700 mm^3) was 5.98 ± 3.08 %ID/g. For the same compound, the tissue uptake at 65 min ([1]; large intestine, 10 uCi (370 kBq), large intestine uptake, tumor volume 300-700 mm^3) was 4.52 ± 1.31 %ID/g, the tissue uptake at 65 min ([1]; large intestine, 10 uCi (370 kBq), large intestine uptake, tumor volume <300 mm^3) was 2.06 ± 1.02 %ID/g and the tissue uptake at 65 min ([1]; large intestine, 10 uCi (370 kBq), large intestine uptake, tumor volume >700 mm^3) was 4.07 ± 1.91 %ID/g. The tissue uptake at 65 min ([1]; liver, 10 uCi (370 kBq), liver uptake, tumor volume 300-700 mm^3) was 0.4 ± 0.18 %ID/g, the tissue uptake at 65 min ([1]; liver, 10 uCi (370 kBq), liver uptake, tumor volume <300 mm^3) was 0.26 ± 0.07 %ID/g and the tissue uptake at 65 min ([1]; liver, 10 uCi (370 kBq), liver uptake, tumor volume >700 mm^3) was 0.52 ± 0.19 %ID/g. For the same compound, the tissue uptake at 65 min ([1]; lung, 10 uCi (370 kBq), lung uptake, tumor volume 300-700 mm^3) was 0.92 ± 0.41 %ID/g, the tissue uptake at 65 min ([1]; lung, 10 uCi (370 kBq), lung uptake, tumor volume <300 mm^3) was 0.82 ± 0.5 %ID/g and the tissue uptake at 65 min ([1]; lung, 10 uCi (370 kBq), lung uptake, tumor volume >700 mm^3) was 1.28 ± 0.47 %ID/g. It also gave a tissue uptake at 65 min ([1]; muscle, 10 uCi (370 kBq), muscle uptake, tumor volume 300-700 mm^3) of 0.22 ± 0.1 %ID/g, a tissue uptake at 65 min ([1]; muscle, 10 uCi (370 kBq), muscle uptake, tumor volume <300 mm^3) of 0.23 ± 0.12 %ID/g and a tissue uptake at 65 min ([1]; muscle, 10 uCi (370 kBq), muscle uptake, tumor volume >700 mm^3) of 0.48 ± 0.34 %ID/g. It also gave a tissue uptake at 65 min ([1]; pancreas, 10 uCi (370 kBq), pancreas uptake, tumor volume 300-700 mm^3) of 40.1 ± 11.5 %ID/g, a tissue uptake at 65 min ([1]; pancreas, 10 uCi (370 kBq), pancreas uptake, tumor volume <300 mm^3) of 30 ± 12.5 %ID/g and a tissue uptake at 65 min ([1]; pancreas, 10 uCi (370 kBq), pancreas uptake, tumor volume >700 mm^3) of 37.2 ± 7.29 %ID/g. It also gave a tissue uptake at 65 min ([1]; small intestine, 10 uCi (370 kBq), small intestine uptake, tumor volume 300-700 mm^3) of 3.74 ± 1.15 %ID/g, a tissue uptake at 65 min ([1]; small intestine, 10 uCi (370 kBq), small intestine uptake, tumor volume <300 mm^3) of 2.97 ± 0.66 %ID/g and a tissue uptake at 65 min ([1]; small intestine, 10 uCi (370 kBq), small intestine uptake, tumor volume >700 mm^3) of 3.8 ± 1.46 %ID/g. It also gave a tissue uptake at 65 min ([1]; spleen, 10 uCi (370 kBq), spleen uptake, tumor volume 300-700 mm^3) of 2.02 ± 3.14 %ID/g, a tissue uptake at 65 min ([1]; spleen, 10 uCi (370 kBq), spleen uptake, tumor volume <300 mm^3) of 1.77 ± 1.19 %ID/g and a tissue uptake at 65 min ([1]; spleen, 10 uCi (370 kBq), spleen uptake, tumor volume >700 mm^3) of 2.91 ± 4.89 %ID/g. It also gave a tissue uptake at 65 min ([1]; stomach, 10 uCi (370 kBq), stomach uptake, tumor volume 300-700 mm^3) of 1.59 ± 0.9 %ID/g, a tissue uptake at 65 min ([1]; stomach, 10 uCi (370 kBq), stomach uptake, tumor volume <300 mm^3) of 1.07 ± 0.53 %ID/g and a tissue uptake at 65 min ([1]; stomach, 10 uCi (370 kBq), stomach uptake, tumor volume >700 mm^3) of 1.46 ± 0.62 %ID/g. The tissue uptake at 65 min ([1]; tumor, 10 uCi, tumor uptake, tumor volume 300-700 mm^3) was 8.55 ± 2.65 %ID/g, the tissue uptake at 65 min ([1]; tumor, 10 uCi, tumor uptake, tumor volume <300 mm^3) was 8.07 ± 3.23 %ID/g and the tissue uptake at 65 min ([1]; tumor, 10 uCi, tumor uptake, tumor volume >700 mm^3) was 11.1 ± 2.88 %ID/g. It also gave a dose excreted at 65 min ([1]; 10 uCi, tumor volume 300-700 mm^3) of 67.2 ± 8.53%, a dose excreted at 65 min ([1]; 10 uCi, tumor volume <300 mm^3) of 60.8 ± 29.3% and a dose excreted at 65 min ([1]; 10 uCi, tumor volume >700 mm^3) of 60.2 ± 10.8%. The “blood retention values between the two models” value ([2]; orthotopic versus subcutaneous) was “not statistically different”, the “average tumor uptake, orthotopic versus subcutaneous model” value ([2]; tumor volume 300–700 mm^3, p = 0.011) was 1.6 fold and the “average tumor uptake, orthotopic versus subcutaneous model” value ([2]; tumor volume <300 mm^3, p = 0.0055) was 1.9 fold. The “average tumor uptake, orthotopic versus subcutaneous model” value ([2]; tumor volume >700 mm^3, p = 0.34) was 1.2 fold.
